Reference: US10705101B2, “Determination of the unbound free fatty acid profiles in biological and industrial specimens” (priority 2013, dated 2020)

What was measured:
Assay type in all cases: binding
[1] = Probe calibration by titration with FFA / FFA-BSA complexes: SA
Description: (§1) Calibration: Each probe is calibrated to the extent that the constants in Equation 2 are well determined for all FFAu to be included in profile calculations. Equation 2, which is the form of equation 1 for a single FFAu, relates the FFAu concentration to the equilibrium dissociation constant (Kd), fluorometric constants (Q and Rm) and the measured R values.
(§2) The calibration parameters are determined essentially as described in U.S. Pat. No. 7,601,510 which is incorporated herein by reference and (Huber et al Biochemistry (2006) 45:14263-14274) where the calibrated ADIFAB2 probe was used to generate FFA-BSA complexes with accurate and well buffered FFAu concentrations. To calibrate probes with substantially higher affinities than used in U.S. Pat. No. 7,601,510 and (Huber et al Biochemistry (2006) 45:14263-14274) a boot strap method is used in which a probe having higher affinities is calibrated with ADTFAB2. Such a probe is then used to generate FFA-BSA complexes with FFAu concentrations from 0.1 to 10 nM and these complexes are then used to calibrate other high affinity probes.
(§3) Probe calibration involves titrating the probes with either (i) un-buffered FFA or (ii) BSA-buffered FFA stocks. The un-buffered titrations involve measuring the R-value of a 1 μM probe solution as it is slowly titrated to saturation with small aliquots of a 100 to 250 μM FFA stock (Richieri G V et al. (1992) J Biol Chem 267: 23495-23501, Richieri G V et al. (1999) Mol Cell Biochem 192: 87-94). In this case, the total FFA concentration for each point in the titration is known and a nonlinear fit to the titration data yields the full set of fluorometric constants. In an un-buffered FFA titration, probe concentration is a key variable because the probe binds FFA, directly affecting the FFAu value.
(§4) Alternatively, in a BSA-buffered FFA calibration, the probe solution is titrated with a series of FFA-BSA complexes (600 μM BSA with [FFAu] ranging from 0.1 nM to 4 μM). The titration samples are FFA-BSA complex diluted 50-fold in Measuring Buffer. Probe is added to a concentration of 0.5 μM and the R-value is measured. Because BSA buffers FFAu, its concentration remains constant (i.e. known), even after the addition of probe. […] At least two calibrations with each of the up to 15 different FFA are performed for each probe.
(§5) All of the probes reveal substantial differences for different FFAu and in many cases these differences are related to the aqueous solubility of the FFA. For example, of the FFA in Table 3, SA is the least soluble and MA the most soluble. As discussed in (Richieri G V et al (2000) Biochemistry 39: 7197-7204) the tendency of natural proteins and FABPs, in particular, is for binding constants to be largest (smallest Kd) for the least soluble FFA and conversely for the most soluble FA. In two cases, ADIFAB2 and L11, Kd for SA is substantially the smallest and MA the largest and that pattern is more or less maintained for most of the other probes in Table3 with the exception of L83. In that case MA has the largest affinity while SA's more than 10 fold smaller. To some extent the other calibrations constants follow that behavior; Q is largest for the smallest Kd and Rmax is often largest, so that the probe response tends to be larger for FFA with the larger affinities. The ability to generate mutations that overcome the “natural thermodynamics” allows for probes that have a wide range of specificities and sensitivities than enable the determination of FFAu profiles.

[2] = Probe calibration by titration with FFA / FFA-BSA complexes: PA; conditions: equilibrium dissociation constant of probe for PA
Description: as §1, §2, §3, §4, §5

[3] = Probe calibration by titration with FFA / FFA-BSA complexes: LA; conditions: equilibrium dissociation constant of probe for LA
Description: as §1, §2, §3, §4, §5

[4] = Probe calibration by titration with FFA / FFA-BSA complexes: MA; conditions: equilibrium dissociation constant of probe for MA
Description: as §1, §2, §3, §4, §5

[5] = Probe calibration by titration with FFA / FFA-BSA complexes: DHA; conditions: equilibrium dissociation constant of probe for DHA
Description: as §1, §2, §3, §4, §5

[6] = Probe response profile / specificity for different FFAu at 1 nM; conditions: FFAu giving the largest response to 1 nM of each FFAu; several listed in order of degree of specificity
Source text: The abbreviations are: arachidonate (AA), docosahexaenoate (DHA), eicosapentaenoate (EPA), laurate (LAU), linoleate (LA), linolenate (LNA), myristate (MA), oleate (OA), palmitate (PA), palmitoleate (POA), stearate (SA), and vaccenate (VA).
Examples of probes used, generally in groups of 10 or more, to determine FFAu profiles in biological samples such as blood plasma or serum from animals and humans or media from microorganisms are shown in Table 2. In the sequences presented in Table 2 and the sequence listing, amino acids are numbered from the first residue of the mature protein. The initiator methionine residue of the wild-type protein is removed by aminopeptidase activity, leaving an alanine as residue 1. Thus, counting backwards and skipping 0, the initiator methionine is at residue position −1. Specificity indicates the FFAu that gives the largest response to 1 nM of each FFAu when one FFAu dominates the profile and more than one when there is a more even distribution of specificity. Where more than one is indicated they are listed in order of degree of specificity. The abbreviations are: arachidonate (AA), docosahexaenoate (DHA), eicosapentaenoate (EPA), laurate (LAU), linoleate (LA), linolenate (LNA), myristate (MA), oleate (OA), palmitate (PA), palmitoleate (POA), stearate (SA), and vacsinate (VA). The sequences indicate mutations relative to SEQ ID NO: 1. This sequence is a mutated rat intestinal fatty acid binding protein with a Glu 131 to Asp substitution and includes a COOH-terminal affininity tag comprising […], Gly 133 and 6 histidines.
The response profile is the fluorescence change as evaluated as (R−Ro)/Ro (ΔR/Ro) for each FFAu added as a complex of the FFA and albumin so that the FFAu concentration is clamped or buffered at 1 nM for every FFAu for which a calibration has been performed. The calculation is performed simply by rearranging equation 2 to solve for ΔR/Ro. […] However all the probes have different profiles and therefore complementary specificities for different FFAu. Abbreviations are as in Table 2.

[7] = Probe calibration by titration with FFA / FFA-BSA complexes: OA; conditions: equilibrium dissociation constant of probe for OA
Description: as §1, §2, §3, §4, §5

[8] = Probe calibration by titration with FFA / FFA-BSA complexes: AA; conditions: equilibrium dissociation constant of probe for AA
Description: as §1, §2, §3, §4, §5

[9] = Probe calibration by titration with FFA / FFA-BSA complexes: POA; conditions: equilibrium dissociation constant of probe for POA
Description: as §1, §2, §3, §4, §5

[10] = Probe calibration by titration with FFA / FFA-BSA complexes: LNA; conditions: equilibrium dissociation constant of probe for LNA
Description: as §1, §2, §3, §4, §5

[11] = Probe response (increase in R) to 1 nM SA; conditions: 1 nM of SA, FIG. 1
Source text: The set of probes chosen to determine the profile of a sample depends upon the nature of the sample, the types of FFA expected to be present in the sample and the determination that the chosen probes respond to the expected FFA. In addition, especially for the least abundant FFAu in a sample, the probe's sensitivity for a given FFAu must be sufficient to accurately quantitate the low concentration FFAu, for example less than 50 pM. Sensitivity is a function of the Kd, Q, Ro and Rm parameters. Differences in sensitivity among different FFAu probes are apparent in FIG. 1 where for example for ADIFAB2 (acrylodan labeled at lysine 27), 1 nM of SA produces a 20% increase in R while for L11P7B3V26C the increases is almost 500%. […] In the absence of absolutely specific and sensitive probes the determination of FFAu profiles requires an over determined system, which empirically requires about twice the number of probes as FFAu to obtain accurate profiles. The identity of the set of probes to achieve accurate FFAu profiles is not unique. […]
The response profile is the fluorescence change as evaluated as (R−Ro)/Ro (ΔR/Ro) for each FFAu added as a complex of the FFA and albumin so that the FFAu concentration is clamped or buffered at 1 nM for every FFAu for which a calibration has been performed. […]

[12] = equilibrium dissociation constant of probe for SA, read-out: Kd SA

Kd [1, 12]	Kd [2]	Kd [3]	Kd [4]	Kd [5]	Kd [7]	Kd [8]	Kd [9]	Kd [10]	Kd ([1]; read-out: Kd for SA)	Molecule	Specificity [6]	increase in R [11]
19.2 nM	45.4 nM	97.5 nM	299 nM	248 nM	14.4 nM	104 nM	209 nM	217 nM		L1P8 H2: acrylodan-labeled mutant FABP probe: Y14M, L38M, L72W (protein, UniProt P02693 2-132, looked up, variant Y14M L38M L72W, acrylodan label, acrylodan-labeled mutant FABP probe: Y14M, L38M, L72W) Fatty acid-binding protein, …: AFDGTWKVDRNENMEKFMEKMGINVVKRKLGAHDNLKMTITQEGNKFTVKESSNFRNIDVVFELGVDFAYSWADGTELTGTWTMEGNKLVGKFKRVDNGKELIAVREISGNELIQTYTYEGVEAKRIFKKE	OA/SA/VA	
2 nM	3 nM	1.1 nM	15.4 nM	1.2 nM	1.3 nM	1 nM	5.5 nM	2.7 nM		L10P7 A4 L30C: acrylodan-labeled mutant FABP probe: Y14L, M18L, K27A, L30C, G31Y, A73L, Y117A (protein, UniProt P02693 2-132, looked up, variant Y14L M18L K27A L30C G31Y A73L Y117A, acrylodan label, acrylodan-labeled mutant FABP probe: Y14L, M18L, K27A, L30C, G31Y, A73L, Y117A) Fatty acid-binding protein, …: AFDGTWKVDRNENLEKFLEKMGINVVARKCYAHDNLKLTITQEGNKFTVKESSNFRNIDVVFELGVDFAYSLLDGTELTGTWTMEGNKLVGKFKRVDNGKELIAVREISGNELIQTATYEGVEAKRIFKKE	AA/DHA/OA/EPA/LA	
	1.1 nM	3.9 nM	18.8 nM	7.5 nM	1 nM	6.1 nM	11.1 nM	11.2 nM	0.25 nM	L11P7 B3 V26C: acrylodan-labeled mutant FABP probe: M21F, V26C, L72A, L78V, L102V (protein, UniProt P02693 2-132, looked up, variant M21F V26C L72A L78V L102V, acrylodan label, acrylodan-labeled mutant FABP probe: M21F, V26C, L72A, L78V, L102V) Fatty acid-binding protein, …: AFDGTWKVDRNENYEKFMEKFGINVCKRKLGAHDNLKLTITQEGNKFTVKESSNFRNIDVVFELGVDFAYSAADGTEVTGTWTMEGNKLVGKFKRVDNGKEVIAVREISGNELIQTYTYEGVEAKRIFKKE		~500%
